Results on three molecules are retold here after US20160304628A1.

Primed or numbered codes have the meaning given here. Where no end group is shown, it is not given here. [ ]: non-standard residue; d: D form. The star is where a group is joined. Hpra′ = its azide, alkyne or alkene has reacted where a group follows in round brackets; Man9 = Man9 glycan, attached by click reaction of Man9-azide with homopropargylglycine; maleimide‑biotin = maleimide-biotin reagent joined to deprotected Cys; For = O=C*

Test [1] addresses HIV broadly neutralizing monoclonal antibody 2G12. The test is described as follows: radiolabeled glycopeptide, 2G12 titration, protein G bead capture, scintillation counting.
Test [2] shares this target. Kind of test: BLI (BLItz), biotin-10F2 on streptavidin sensor, 2G12 in solution at 32 nM.
Test [3] has the same target. The test is described as follows: BLI (BLItz), biotin-10F2 on streptavidin sensor, 2G12 in solution at 2 nM.
Test [4] shares this target. The test is described as follows: BLI (BLItz), biotin-10F2 on streptavidin sensor, 2G12 in solution at 4 nM.
The target is the same in test [5]. The test is described as follows: BLI (BLItz), biotin-10F2 on streptavidin sensor, 2G12 in solution at 4 nM; global 1:1 fit.
For test [6] the target is unchanged. Kind of test: BLI (BLItz), biotin-10F2 on streptavidin sensor, 2G12 in solution at 1 nM; global 1:1 fit.
Test [7] shares this target. Kind of test: BLI (BLItz), biotin-10F2 on streptavidin sensor, 2G12 in solution at 0.5 nM.
For test [8] the target is unchanged. The test is described as follows: BLI (BLItz), biotin-10F2 on streptavidin sensor, 2G12 in solution at 16 nM.
For test [9] the target is unchanged. Kind of test: BLI (BLItz), biotin-10F2 on streptavidin sensor, 2G12 in solution at 1 nM.
Test [10] has the same target. Kind of test: BLI (BLItz), biotin-10F2 on streptavidin sensor, 2G12 in solution at 2 nM; global 1:1 fit.
Test [11] has the same target. The test is described as follows: BLI (BLItz), biotin-10F2 on streptavidin sensor, 2G12 in solution at 0.5 nM; global 1:1 fit.
The target is the same in test [12]. Kind of test: BLI (BLItz), biotin-10F2 on streptavidin sensor, 2G12 in solution at 16 nM; global 1:1 fit.
For test [13] the target is unchanged. Kind of test: BLI (BLItz), biotin-10F2 on streptavidin sensor, 2G12 in solution at 8 nM.
For test [14] the target is unchanged. The test is described as follows: BLI (BLItz), biotin-10F2 on streptavidin sensor, 2G12 in solution at 8 nM; global 1:1 fit.
For test [15] the target is unchanged. The test is described as follows: BLI (BLItz), biotin-10F2 on streptavidin sensor, 2G12 in solution at 32 nM; global 1:1 fit.

B1: glycopeptide 10F12 (Fixed library, round 10) (peptide)
peptide: For-[Hpra′](Man9)CYVTVIPA[Hpra′](Man9)N[Hpra′](Man9)PEARLGIVCH[Hpra′](Man9)PGIRRGKALYGSGSLGHHHHHHRDYKDDDDK
modifications: not fully specified; cysteine pairing not given here
As a reminder, the Kd is the free concentration of one partner at which half of the binding sites on the other are occupied at equilibrium, for simple one-to-one binding. B1: in [1], the Fmax worked out at 90% and the Kd stood at 0.77 nM.

B2: glycopeptide 10F5 (Fixed library, round 10) (peptide)
peptide: For-[Hpra′](Man9)SPHLPVLLCK[Hpra′](Man9)VLNDGRRIVQ[Hpra′](Man9)SCELP[Hpra′](Man9)VRRSGSGSLGHHHHHHRDYKDDDDK
modifications: not fully specified; cysteine pairing not given here
In test [1], B2 yielded an Fmax of 93% and a Kd of 0.97 nM.

B3: biotinylated synthetic 10F2 glycopeptide 3 (peptide)
peptide: For-[Hpra′](Man9)HPYNTSRTSA[Hpra′](Man9)[Hpra′](Man9)AALK[Hpra′](Man9)QVTD[Hpra′](Man9)YALALFHRILGSGSGC(maleimide‑biotin)A
A word on the koff: it is the rate constant with which the complex falls apart. Low readings indicate slow dissociation, high ones fast dissociation. Usually kon stands for the second-order rate constant of association. Lower therefore signals slower complex formation. As for B3, the Req in test [2] is 1.39; in test [3], 0.987; in [4] it was 1.26; in [7] it was 0.481; in test [8], 1.41; in test [9] it was 0.682. For the same molecule, in test [13], the Req is 1.37. Also, the Kd in [5], in test [6], in [10], in test [11], in test [12] and in test [14] was 1.37 nM throughout. Also, the equilibrium dissociation constant (Kd) in test [15] was found to be 1.37 nM. The koff in test [5], in [6], in test [10], in test [11], in test [12] and in [14] was 0.000151 s⁻¹ in each case. The koff in [15] is 0.000151 s⁻¹. Further, the kon in [5], in [6], in [10], in [11], in [12] and in test [14] was 111000 M⁻¹ s⁻¹ throughout. The on-rate constant (kon) in [15] amounted to 111000 M⁻¹ s⁻¹.
